Biological target: T1, 鼠VEGF (mouse, UniProt Q00731-2 27-190, limits assumed)
T1 construct: Coated on the ELISA plate at 0.5 ug/ml; also called mouse VEGF
T1 sequence (looked up): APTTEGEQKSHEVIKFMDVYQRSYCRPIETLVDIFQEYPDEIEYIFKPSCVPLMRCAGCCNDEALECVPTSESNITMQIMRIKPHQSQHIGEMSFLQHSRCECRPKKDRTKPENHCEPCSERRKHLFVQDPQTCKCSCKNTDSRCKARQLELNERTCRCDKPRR
Experiment: ELISA, mouse VEGF coated at 0.5 ug/ml

binding result: no binding
B1: NevegiMab抗体 (antibody, V domains shown)
VH: EVKLQESGPELKKPGETVKISCKASGYTFTNYGLNWVKQAPGKGLKWMGWINTYTGEPTYADDFKGRFAFSLETSASTAYLQINNLKNEDMATYFCAKYGITYEWYFDVWGAGTTVTVSS
VL: DIVLTQSTSSLSASLGDRVTISCRASQDISNSLNWYQQKPNGTVILLIYYTSRLHSGVPSRFSGSGSGAVYSLTISDLEQEDIATYFCQQGNTFPWTFGGGTKLEIKR
notes: Mouse monoclonal antibody purified from hybridoma supernatant; also called 单抗NevegiMab; 单克隆抗体NevegiMab
